In US20260028391A1:
Read-outs that look alike come from different tables or passages of the source.

Experiments:
[1] = biological target: fusion glycoprotein (F) of the MPV used in the neutralization of Table 34 (metapneumovirus); assay: cell-based or functional assay
[2] = biological target: RSV fusion glycoprotein (RSV-F) of the RSV used in the neutralization of Table 33 (respiratory syncytial virus, strain not stated); assay: cell-based or functional assay
[3] = biological target: fusion glycoprotein of RSV A2 BPR-344-00 (BEI NR-12149) (respiratory syncytial virus A2) (UniProt P03420); assay: cell-based or functional assay
[4] = biological target: fusion glycoprotein of RSV B1 BPR-348-00 (BEI NR-4052) (respiratory syncytial virus B1) (UniProt O36634); assay: cell-based or functional assay
[5] = biological target: fusion glycoprotein of the RSV used in the neutralization assay of Example 1 (respiratory syncytial virus (strain not stated)); assay: cell-based or functional assay
[6] = biological target: RSV fusion glycoprotein (RSV-F) (respiratory syncytial virus (strain not stated)); assay: SPR; sensors loaded with RSV-F, mAb in solution (Experiment 2)
[7] = biological target: MPV fusion glycoprotein with the D280N mutation (MPV-F N280) (metapneumovirus); assay: SPR; F protein loaded on streptavidin sensors, mAb in solution
[8] = biological target: RSV fusion glycoprotein (RSV-F) (respiratory syncytial virus); assay: as above
[9] = biological target: MPV fusion glycoprotein without the D280N mutation (MPV-F D280) (metapneumovirus); assay: as above
[10] = biological target: RSV-A F (RSV A); assay: BLI
[11] = biological target: RSV-B F (RSV B); assay: BLI
[12] = biological target: RSV F A S433P (RSV A, strain A2) (UniProt P03420); assay: FACS, % binding to RSV F A variants
[13] = biological target: RSV F A L203I (RSV A, strain A2) (UniProt P03420); assay: FACS, % binding to RSV F A variants
[14] = biological target: RSV F A S443P-K445N (RSV A, strain A2) (UniProt P03420); assay: FACS, % binding to RSV F A variants
[15] = biological target: RSV F A N208Y-N671I (RSV A, strain A2) (UniProt P03420); assay: FACS, % binding to RSV F A variants
[16] = biological target: RSV F A G446E (RSV A, strain A2) (UniProt P03420); assay: FACS, % binding to RSV F A variants
[17] = biological target: RSV F A, A2 Ref (RSV A, strain A2) (UniProt P03420); assay: FACS, % binding to RSV F A variants
[18] = biological target: RSV F A S433P-G446E (RSV A, strain A2) (UniProt P03420); assay: FACS, % binding to RSV F A variants
[19] = biological target: RSV-A F (RSV A); assay: affinity; method not given
[20] = biological target: RSV-B F (RSV B); assay: affinity; method not given
[21] = biological target: biot-RSV-F wt (respiratory syncytial virus (RSV)); assay: BLI (Octet), biotinylated F on SA sensors, mAb 5 µg/ml
[22] = biological target: RSV A fusion glycoprotein (F), virus of the neutralisation assays of Tables 54 and 57 (RSV A); assay: cell-based or functional assay
[23] = biological target: RSV A Randall fusion glycoprotein (F) (RSV A, strain Randall); assay: cell-based or functional assay
[24] = biological target: RSV A2 BPR-344-00 (BEI NR-12149) fusion glycoprotein (F) (RSV A, strain A2) (UniProt P03420); assay: cell-based or functional assay
[25] = biological target: RSV B1 BPR-348-00 (BEI NR-4052) fusion glycoprotein (F) (RSV B, strain B1) (UniProt O36634); assay: cell-based or functional assay
[26] = biological target: fusion glycoprotein (F) of MPV A GFP (Tables 41 and 43) (metapneumovirus A); assay: cell-based or functional assay
[27] = biological target: RSV-long strain fusion glycoprotein (F) (RSV, long strain) (UniProt P12568); assay: cell-based or functional assay
[28] = biological target: fusion glycoprotein (F) of RSV B GFP (Tables 41 and 42) (respiratory syncytial virus B); assay: cell-based or functional assay
[29] = biological target: RSV B 9719/09 fusion glycoprotein (F) (RSV B, strain 9719/09); assay: cell-based or functional assay
[30] = biological target: fusion glycoprotein (F) of RSV A GFP (Tables 41 and 42) (respiratory syncytial virus A); assay: cell-based or functional assay
[31] = biological target: RSV-B B18537/62 F protein (RSV B, strain B18537/62) (UniProt P13843); assay: cell-based or functional assay
[32] = biological target: RSV-B B9320 F protein (RSV B, strain B9320); assay: cell-based or functional assay
[33] = biological target: RSV A2 BPR-344-00 (BEI NR-12149) fusion glycoprotein (F) (RSV A, strain A2) (UniProt P03420); assay: cell-based or functional assay; remark: listed apart in the source
[34] = biological target: RSV A2 VR 1540 fusion glycoprotein (F) (RSV A, strain A2 (VR 1540)) (UniProt P03420); assay: cell-based or functional assay
[35] = biological target: RSV A 2001/3-12 fusion glycoprotein (F) (RSV A, strain A 2001/3-12); assay: cell-based or functional assay
[36] = biological target: RSV B (screening GFP strain) fusion glycoprotein (F) (RSV B); assay: cell-based or functional assay
[37] = biological target: RSV A1998/3-2 fusion glycoprotein (F) (RSV A, strain A1998/3-2); assay: cell-based or functional assay
[38] = biological target: RSV A1997/12-35 fusion glycoprotein (F) (RSV A, strain A1997/12-35); assay: cell-based or functional assay
[39] = biological target: RSV A2 (screening GFP strain) fusion glycoprotein (F) (RSV A); assay: cell-based or functional assay
[40] = biological target: RSV Ds Red 5 fusion glycoprotein (F) (RSV, strain printed as Ds Red 5); assay: cell-based or functional assay
[41] = biological target: RSV A 2000/3-4 fusion glycoprotein (F) (RSV A, strain A 2000/3-4); assay: cell-based or functional assay
[42] = biological target: RSV F B K68N-N201S (RSV B); assay: FACS, % binding to RSV F B variants
[43] = biological target: RSV F B N201S (RSV B); assay: FACS, % binding to RSV F B variants
[44] = biological target: RSV F B N208D (RSV B); assay: FACS, % binding to RSV F B variants
[45] = biological target: RSV F B S443P (RSV B); assay: FACS, % binding to RSV F B variants
[46] = biological target: RSV F B, B Ref (RSV B); assay: FACS, % binding to RSV F B variants
[47] = biological target: RSV F B N208S (RSV B); assay: FACS, % binding to RSV F B variants
[48] = biological target: RSV F B K68N-N208S (RSV B); assay: FACS, % binding to RSV F B variants
[49] = biological target: RSV fusion glycoprotein (RSV-F) of RSV-A (A2) (respiratory syncytial virus A, strain A2) (UniProt P03420); assay: cell-based or functional assay
[50] = biological target: RSV fusion glycoprotein (RSV-F) of RSV-B (B1) (respiratory syncytial virus B, strain B1) (UniProt O36634); assay: cell-based or functional assay
[51] = biological target: fusion glycoprotein of Human metapneumovirus-TN/96-213 (BEI NR-22243) (human metapneumovirus TN/96-213); assay: cell-based or functional assay
[52] = biological target: fusion glycoprotein (F) of RSV B/9727 (respiratory syncytial virus B/9727); assay: cell-based or functional assay
[53] = biological target: MPV fusion glycoprotein (MPV-F) of MPV-B2 (TN/96-213) (human metapneumovirus, strain TN/96-213); assay: cell-based or functional assay
[54] = biological target: fusion glycoprotein of the MPV D280 used in the neutralization assay of Example 3 (metapneumovirus (strain not stated)); assay: cell-based or functional assay
[55] = biological target: fusion glycoprotein of Human Metapneumovirus-GFP CAN97-83 (Vira Tree M121) (human metapneumovirus CAN97-83) (UniProt Q6WB98); assay: cell-based or functional assay
[56] = biological target: MPV fusion glycoprotein (MPV-F) of MPV-A2 (CAN97-83) (human metapneumovirus, strain CAN97-83) (UniProt Q6WB98); assay: cell-based or functional assay
[57] = biological target: fusion glycoprotein (F) of RSV A/A2/61 (respiratory syncytial virus A/A2/61) (UniProt P03420); assay: cell-based or functional assay
[58] = biological target: RSV fusion glycoprotein (RSV-F) (respiratory syncytial virus (strain not stated)); assay: SPR; sensors loaded with F protein, mAb in solution
[59] = biological target: RSV fusion glycoprotein (RSV-F), pre-fusion conformation, recombinant protein loaded on sensors (respiratory syncytial virus (RSV), strain not stated); assay: ELISA-type titration, OD 405 nm, on Pre-F

MPE8 (antibody), sequence (VH): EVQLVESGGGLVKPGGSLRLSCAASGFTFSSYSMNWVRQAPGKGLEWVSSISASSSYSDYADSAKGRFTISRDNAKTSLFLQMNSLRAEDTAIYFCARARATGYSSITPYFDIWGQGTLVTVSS
MPE8 (antibody), sequence (VL): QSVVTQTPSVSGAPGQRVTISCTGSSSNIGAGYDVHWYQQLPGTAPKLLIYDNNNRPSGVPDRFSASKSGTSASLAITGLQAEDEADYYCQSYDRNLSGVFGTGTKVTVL
palivizumab (antibody), sequence (VH): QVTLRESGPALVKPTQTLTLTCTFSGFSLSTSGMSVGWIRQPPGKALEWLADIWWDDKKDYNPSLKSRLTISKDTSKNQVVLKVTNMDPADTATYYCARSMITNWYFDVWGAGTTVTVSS
palivizumab (antibody), sequence (VL): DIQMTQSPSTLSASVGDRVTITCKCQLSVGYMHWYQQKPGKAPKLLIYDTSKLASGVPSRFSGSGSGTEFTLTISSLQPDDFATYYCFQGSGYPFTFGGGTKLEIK

D25-rIgG1 (antibody)
IC50 (ng/mL) in neutralization against MPV [1]: > 2000 ng/mL
IC50 (ng/mL) in neutralization against RSV [2]: 0.929 ng/mL

MEDI8897 (antibody)
RSV Neutralization by MPK44 and MPK65-v2 - IC50 [3]: 0.2 ng/mL
RSV and MPV Neutralization (IC50 ng/ml) [3]: 0.208 ng/mL
RSV Neutralization by MPK44 and MPK65-v2 - IC50 [4]: 0.4 ng/mL
RSV and MPV Neutralization (IC50 ng/ml) [4]: 0.447 ng/mL
RSV Neutralization - IC50 [5]: 0.8 ng/mL
Kd [6]: 0.001 nM
Kd [7]: 100 nM
Kd [8]: 0.001 nM
Kd [9]: 100 nM

MEDI8897-rIgG1-YTE (antibody)
Kd [10]: 0.035 nM
Kd [11]: 0.221 nM
% binding [12]: 35.3%
% binding [13]: 0.04%
% binding [14]: 34.5%
% binding [15]: 0.049%
% binding [16]: 28.5%
% binding [17]: 60.2%
% binding [18]: 35.8%
Kd [19]: 0.001 nM
Kd [20]: 1.22 nM
Kd [21]: 0.0397 nM
IC50, neutralization of RSVA [22]: 7.74 ng/mL
IC50, virus neutralization [23]: 2.42 ng/mL
IC50, virus neutralization [24]: 0.2 ng/mL
EC50, virus neutralization (Fab testing) [25]: 0.0088 nM
IC50, virus neutralization [25]: 0.4 ng/mL
IC50 (ng/ml), MPV A GFP neutralization [26]: > 2000 ng/mL
EC50, virus neutralization (Fab testing) [27]: 0.0069 nM
IC50 (ng/ml), RSV B GFP neutralization [28]: 0.419 ng/mL
IC50, virus neutralization [29]: 1.25 ng/mL
IC50 (ng/ml), RSV A GFP neutralization [30]: 0.483 ng/mL
EC50, virus neutralization (Fab testing) [31]: 0.011 nM
EC50, virus neutralization (Fab testing) [32]: 0.0102 nM
IC50, virus neutralization [33]: 1.01 ng/mL
IC50, virus neutralization [34]: 1.14 ng/mL
IC50, virus neutralization [35]: 0.63 ng/mL
IC50, virus neutralization [36]: 1.14 ng/mL
IC50, virus neutralization [37]: 0.9 ng/mL
IC50, virus neutralization [38]: 0.76 ng/mL
IC50, virus neutralization [39]: 1.02 ng/mL
IC50, virus neutralization [40]: 0.48 ng/mL
IC50, virus neutralization [41]: 0.57 ng/mL
% binding [42]: 0.056%
% binding [43]: 27.3%
% binding [44]: 0.026%
% binding [45]: 38.5%
% binding [46]: 57.3%
% binding [47]: 0.035%
% binding [48]: 0.031%

MEDI8897-rIgG1-YTE (nirsevimab) (antibody)
IC50 (ng/mL) in neutralization against MPV [1]: > 2000 ng/mL
Neutralization (IC50, ng/ml) [49]: 0.2 ng/mL
IC50 (ng/mL) in neutralization against RSV [2]: 0.549 ng/mL
Neutralization (IC50, ng/ml) [50]: 0.4 ng/mL

MK-1654-rIgG1m17,1-YTE (antibody)
% binding [12]: 7.14%
% binding [13]: 62.6%
% binding [14]: 0.11%
% binding [15]: 43.1%
% binding [16]: 0.049%
% binding [17]: 83.7%
% binding [18]: 1.04%
IC50, neutralization of RSVA [22]: 4.61 ng/mL
% binding [42]: 66.7%
% binding [43]: 64.7%
% binding [44]: 63.1%
% binding [45]: 22.6%
% binding [46]: 63.4%
% binding [47]: 64.3%
% binding [48]: 65.7%

MPE8 (antibody)
RSV IC50 (ng/ml), neutralization of A/Randall [23]: 22 ng/mL
RSV and MPV Neutralization (IC50 ng/ml) [3]: 6.01 ng/mL
IC50 (ng/mL) in neutralization against MPV [1]: 11 ng/mL
RSV and MPV Neutralization (IC50 ng/ml) [51]: 23.6 ng/mL
RSV IC50 (ng/ml), neutralization of B/9727 [52]: 16.9 ng/mL
Neutralization (IC50, ng/ml) [53]: 23.6 ng/mL
Neutralization (IC50, ng/ml) [49]: 6 ng/mL
MPV D280 Neutralization - IC50 [54]: 6.9 ng/mL
RSV and MPV Neutralization (IC50 ng/ml) [4]: 3.71 ng/mL
RSV and MPV Neutralization (IC50 ng/ml) [55]: 12.6 ng/mL
Neutralization (IC50, ng/ml) [56]: 12.6 ng/mL
RSV Neutralization - IC50 [5]: 15.3 ng/mL
RSV IC50 (ng/ml), neutralization of B/9320 [32]: 3.2 ng/mL
IC50 (ng/mL) in neutralization against RSV [2]: 12.2 ng/mL
RSV IC50 (ng/ml), neutralization of A/A2 [57]: 126 ng/mL
Neutralization (IC50, ng/ml) [50]: 3.7 ng/mL
Kd [58]: 0.001 nM
EC50 (read off the curve) [59]: 30 ng/mL
Kd [7]: 100 nM
Kd [8]: 0.001 nM
Kd [9]: 2.5 nM

Palivizumab (antibody)
IC50, virus neutralization [23]: 122 ng/mL
IC50, virus neutralization [29]: 78.6 ng/mL

palivizumab (antibody)
RSV Neutralization - IC50 [5]: 156 ng/mL
Kd [6]: 2.6 nM
Kd [8]: 2.6 nM

palivizumab-rIgG1 (antibody)
IC50 (ng/mL) in neutralization against MPV [1]: > 2000 ng/mL
IC50 (ng/mL) in neutralization against RSV [2]: 55.2 ng/mL
